The experiment has as its target CD22 on human B cells (human) (UniProt P20273). The experiment can be described thus: cell-based or functional assay.
Chain of UniProt P20273 (P20273 20-847): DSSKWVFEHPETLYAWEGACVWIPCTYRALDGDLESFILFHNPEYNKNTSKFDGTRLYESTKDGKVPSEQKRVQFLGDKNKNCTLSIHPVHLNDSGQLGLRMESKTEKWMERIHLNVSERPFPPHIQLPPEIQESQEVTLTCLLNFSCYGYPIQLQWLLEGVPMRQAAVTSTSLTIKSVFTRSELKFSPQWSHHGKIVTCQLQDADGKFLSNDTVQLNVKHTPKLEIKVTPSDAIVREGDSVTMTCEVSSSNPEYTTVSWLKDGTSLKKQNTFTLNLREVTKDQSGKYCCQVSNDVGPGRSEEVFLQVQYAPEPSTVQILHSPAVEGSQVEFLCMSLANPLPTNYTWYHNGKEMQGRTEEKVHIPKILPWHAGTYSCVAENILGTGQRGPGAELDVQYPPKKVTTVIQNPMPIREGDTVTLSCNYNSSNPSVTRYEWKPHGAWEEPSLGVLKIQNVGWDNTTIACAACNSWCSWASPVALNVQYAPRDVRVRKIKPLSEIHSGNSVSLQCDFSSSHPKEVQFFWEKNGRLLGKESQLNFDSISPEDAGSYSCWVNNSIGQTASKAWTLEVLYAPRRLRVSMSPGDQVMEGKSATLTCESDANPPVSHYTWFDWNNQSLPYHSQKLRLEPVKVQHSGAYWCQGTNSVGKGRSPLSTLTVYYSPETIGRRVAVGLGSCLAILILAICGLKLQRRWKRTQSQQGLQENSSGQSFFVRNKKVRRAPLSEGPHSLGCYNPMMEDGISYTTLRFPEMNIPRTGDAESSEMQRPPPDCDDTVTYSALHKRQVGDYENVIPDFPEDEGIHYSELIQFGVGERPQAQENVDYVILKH

Take LL2-ONCONASE® immunotoxin: the IC50 of protein synthesis inhibition, CA 46 cells, 24 h amounted to 0.8 nM; the IC50 of protein synthesis inhibition, Daudi cells, 24 h is 0.1 nM; the IC50 of protein synthesis inhibition, Raji cells, 24 h is 0.8 nM.

Values taken from patent publication US20050249738A1.
